The text below walks through data of the supplement of paper PMC12042874.

± gives the uncertainty stated by the source.

The nature of the data set: amyloid nucleation score (Sup35N fusion, yeast selection) (log enrichment); library NNK1; higher = more nucleation; inactive = no reads after selection. In outline: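 Peptides of 20 random codons fused to Sup35N were expressed in psi-negative yeast, induced 24 hours with 100 μM copper sulfate, then grown 7 days at 30°C on medium lacking adenine and uracil. Input and output plasmid inserts were Illumina-sequenced. Nucleation score is the DiMSum log enrichment of output over input reads, centred on the mode score of non-aggregating sequences, excluding sequences with under 100 input reads. Random libraries had three technical output replicates.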
With IYLNFLPVVPCRFFCIRTWG, the amyloid nucleation score result was “inactive”. For the substance LLDKTTVKVILCLFNDTINL, the amyloid nucleation score is 7.855 ± 0.043. Substance RRWGLFDIFKMPKELNMLHW showed an amyloid nucleation score of 0.915 ± 1.1. As for QDRENLNCIHY, the figure is 1.24 ± 0.31; as for MVWPFKRRRWHYGILALLDR, -1.22 ± 0.75; as for AEAKN, -1.01 ± 0.9. On to RLSRKISSWLTRYIIAWSWS, for which the amyloid nucleation score is -0.713 ± 0.61. As for TSFGYLLVSRNWCNSWCIMS, the figure is 3.01 ± 0.079; as for LLISDAVVYLFWTPENHSTW, 1.2 ± 0.56.

With TRKPEPINPQSIWSTVLQHE, the amyloid nucleation score amounted to 0.54 ± 0.48. In the case of LRKVGQGI it was 0.066 ± 0.67. In the case of RIFNIYNGVQRRNFYYFYSC it was 7.532 ± 0.05; in that of FGVEYWWSLGCVWGTLLGYN, “inactive”. As for AKGYSYCKLI, the figure is -0.804 ± 0.3; as for AYVASFTSIRCRAHHAPLSK, -0.366 ± 0.3; as for ITLKF, -0.381 ± 0.43. Regarding DGASMSKRPPRVILKLGIFD, the amyloid nucleation score is 0.054 ± 0.33. In the case of DKNML it was 1.44 ± 0.54; in that of NYHMIVRLASLKKQW, 0.109 ± 0.46; in that of FFIICSYR, -0.868 ± 0.37. In the case of YQQPEDCMFECTVVYSSKSR it was -0.062 ± 0.26; in that of NFTICLGRSTEHPGIRFDAG, -0.207 ± 1.9. In the case of FFSSNNRWRTLYNLHCSEFA it was 0.24 ± 0.56. On to FESTNVLPISGTSAGSV, for which the amyloid nucleation score stood at 1.18 ± 0.74. In the case of GVASNYPNHLVLNSR it was -0.211 ± 0.34; in that of STFAALNVKSCGVCLMWLLD, 0.1 ± 0.84; in that of MYFSIRDCCSYAFNSFDIYG, 5.508 ± 0.047. As for LLNRSALCWMCCTKDSWLLT, the figure is 7.073 ± 0.061; as for PSLLWAFTLS, 0.5 ± 0.42; as for IRKIS, -1.13 ± 1.7. As to SNQTLPWYK, the amyloid nucleation score was determined as 0.043 ± 0.53.

The substance GMTLMVAEFGLIRLVNTLAI returned an amyloid nucleation score of 0.785 ± 0.49. In the case of MLSNGGLHVRSK it was 1.31 ± 0.93; in that of EWDSYMGPFAERMEYNVVFH, 0.398 ± 0.62.

For NHCCRVFMCFRIRGMYNAET, the amyloid nucleation score came out at 4.05 ± 0.085. Consider VSRFFGNRRTNSNENTAGVA, for which the amyloid nucleation score is -1.15 ± 0.43. As for VNCISHGACMCRWFYDSGKK, the figure is 0.847 ± 0.38. As for ESHLRASAGLWLSAGRDCNG, the figure is 1.38 ± 0.63; as for SFDGLYLNSCRFSLPCLLSR, 0.196 ± 0.26. In the case of LVPNLLVHGVYY it was -2.39 ± 2.4; in that of RRGLCGNAKAIIRGLAQGWD, -1 ± 1.2; in that of GSFHTQRTWAFVVVVEVHGK, 0.232 ± 0.41. On to QYYFLLYAKSDLSKWEHHQD, for which the amyloid nucleation score was -0.282 ± 0.97. As for INYGMRCYEE, the figure is -0.427 ± 1.2. As for TIRNMMMYYGSSKVSYRMNS, the figure is 0.587 ± 0.22; as for KSRGRKSSGDFPIRGD, 4.84 ± 0.062; as for HTRIADGPAC, 0.018 ± 0.21. In the case of LLGMRFSVVPSPATFGWTHF it was 1.81 ± 0.18. VRLNNCNLFFCYMTRIAFAE came in with an amyloid nucleation score of 4.96 ± 0.067. In the case of RYWCCSPVRSLVHGRHCEV it was 1.52 ± 0.24; in that of CRCFGRFLVITSI, “inactive”; in that of TFSYILDWFEVSLTHRGALI, 0.192 ± 0.41. As for IMLLAWQLSKMSSFVCKSTR, the figure is 0.16 ± 0.74; as for WASFGPLGAQVPDRRFIYMP, 0.151 ± 0.81.

As to VSSYAIYEECNLPGKAGKPC, the amyloid nucleation score was -0.213 ± 0.63.

Regarding YFRIDAKTWFVSFPVALLPV, the amyloid nucleation score is -0.557 ± 0.29. For the substance SGIVLTG, the amyloid nucleation score is -1.06 ± 2.1. In the case of TPYLDFI, the amyloid nucleation score came to 1.12 ± 0.56.
